Measured values: the DeepSol protein solubility set

Test: soluble on expression in E. coli; label from the status in PepcDB or PDB records

Sequence	soluble on expression in E. coli
MGSDKIHHHHHHMENYQLRIAHLYGDLMNTYGDYGNVIAIKYYAKQIQVETDYHLISLGDSFKADDYDFVIFGGGQDYEESVTAKDLPSKSDEIKKYIENNDSLLAVCGGFQLLGTTMEFANGKIINGIGAMSHHTVNLNSSELFDNMRGKRLIGNIQIKNNESGETYHGFENHQGRTFLGKGEKALGTVVSGNGNNGDDKTEGVIYKQVYGTYFHGPILTRNGNLAKRILKNALLKRYPDIDWQAKLDGIPTESF	not soluble
MGSDKIHHHHHHMERAMKILAHRGWWLEPVEKNSETAFRRAFENGFGVETDTRDQNGVLKIAHDMPVGDQVMDLDYFLDLHKSYAGSGTIAMNIKADGLHKALRASLEGAGITDLFCFDMAVPDAIGYLNNGFITYTRHSELEPLPPFYDKAQGVWLDAFYSDWITPDVIQKHLDAGKKVALVSPELHGRDHTAAWDVWGDLTGDDISICTDLPHLAAEKWG	not soluble
MGSDKIHHHHHHMERIPVIKTSDLSIGYILKGGQKKRVHDALDLNLYPGEVTCLLGLNGAGKSTLLRTLCGFQPPLGGEIELMGKPLNSYSQGNFSRLVGVVLTEKTNAGGITVYELVSLGRHPYTGFFGQLRQEDRRIIEESLAAAGIAHKAYNYVSELSDGERQKAMIAKALAQQCPIILLDEPTAFLDVTSRIETMVLLHTLAVEQQKAILLSTHDLDLAIQLGDCLWLQEKKRPMACGTPEDLIMGGAFETFFSKEGIVFDPNTGKLNTVAPAKLIGVAGDFMTSYWVGNALIRNGFKPSSVSEDYISVYCNAPDSLRIQFPAEEGTRIVGSVAEMISIIIHKS	not soluble
MGSDKIHHHHHHMESAKDITGRIFNIQKYSIYDGDGVRTLIFMKGCNIRCPWCANPEGIRRAYQILFSPDKCLHCGKCAEACPRGIHTLIADEYGSRFHHIDRTVQCTGCRKCEAACPSNALDIVGKDMTVAELMAVIMQDYSFYQSSGGGVTLSGGEVSLQTDFAVALLQACKQKMINTAVETQGTTSISHYDQLAAVTDMFLFDIKHIDTNQHKALFGIGNENIRRNLEHLVELGANIVIRMPLVRGYNDSYDAIMGAIHYVQKLAKRGNVRRIDILPYHQLGRKKYERLGMIYPIKADPSYNEEELNRLDAFFDEFDFDIRLVRH	not soluble
MGSDKIHHHHHHMESSFEVETRTVFDRYQRQQENDDHIFDRLVSLIEEEYFGLPTGSFRGLDVLDAGCGSNANASWAFLDKGARNVVSLELSNDWMDCARKRLSRFGLRSELVAGSVLDLPFDDFSFDFVHCAGVLPHTSNPKKGFEELARVTRPGGSFFLTIMGTANGVIYRCINHLRELYQSDEQFRSSIDNLDASTAREAINWLLRIKDGEEKEYIPGENEFFRSLFDDDLFVTIRDRFQAPTYHEFAFTEAQIRGWYGECGFEKIRRISRYTKNFHNLRRFLAPMYRHYDHPLARFWFGDGCIQMIGEKPST	not soluble
MGSDKIHHHHHHMETMFDTLLQLPLFQGLCHEDFTSILDKVKLHFIKHKAGETIIKSGNPCTQLCFLLKGEISIVTNAKENIYTVIEQIEAPYLIEPQSLFGMNTNYASSYVAHTEVHTVCISKAFVLSDLFRYDIFRLNYMNIVSNRAQNLYSRLWDEPTLDLKSKIIRFFLSHCEKPQGEKTFKVKMDDLARCLDDTRLNISKTLNELQDNGLIELHRKEILIPDAQKLL	soluble
MGSDKIHHHHHHMEWILFDKDGTLIEFDSSWEKIGVRLVDQLLETFPVHDKEAAHRQLGIIDKKIKPDSVMGSGSLGEIIESFNGVTGKETSDWTRDTSQELIDSRVPENNWIDGVQETIQALRNEGYHIGIVTSDTKKGVDQFLEETQTRNLFDLVISTETHAEEKPHPKVLDPLFNAFDVEPGQVAIVGDTANDMKTAINANLGLGIGVLTGVAKKEELYDADVIINSAKDVKQVIEQYGK	not soluble
MGSDKIHHHHHHMFDWEDLRHFSAFSSAGSLSAAAKTLGVDHATVARRIASLEASLQLKLVDRRPRAYALTHEGQRVAELAEQMAMSSFALEHFASAGQQTVEGEVVLSAPPALLGSIIARRLGELYQRYPQLRLKLVGSKSKASLVRREADISIALARPTEPTLVVSLLGHLDYRLYASPGYLASATVRRYIGYDESQARSPQQQWLNLQAGQQPFALHSNDLRIQAQACAGGIGIACLPAFMAQEHGLKEAGSAQQTMSIEIWLAVHEDVRATPRIKAVTDFLQQQVRPLLRL	not soluble
MGSDKIHHHHHHMFLKNAWYVAAWDHEVRTDLQQIMVLGEKICMFRTQSGDLVALEDACPHRKLPLSKGRIKGDTVECGYHGLTFNCAGTCVWAPGASGIPSNARVHAYPLAEKYGLIWIWMGNPALADPSDIFEIENYGNPDWGINRGAAMELDCNYLLMCDNLLDPTHVAWVHQSSFAAEATKDTPLHVTKTDTGIIVHRWMMDHDPAPFYKKVVEFDGNCDRLQHYEVRYPSHALVRAVFTPAGTGGPDGPLHANTFIMDSYNFMTPVSEGKTRYYWFQLRNIRPDDEALSQMMSDDVHHAFEEDRAVLNEVQIGMSSKTSPHIDLPIDGGQLRFRRQLQAMINEEAQVDAQMAE	not soluble
MGSDKIHHHHHHMFPFERQNKIIHLLDQNSKITVPELSRILDVSISTIRNDLSSLEESGMIKKVHGGAVLLKSEEKFTNFNDRIIRNIEEKEAIAKEAATLVKNNQTIILDASSTALALAKELHGFSRLTVITSGLYTAIELKDNPNISVILTGGIVTTNSFTLEGILGANLIENIHADLCFMSAKGFTMEEGLTDFNIYETELKRLLAKRTNKLIALLDHTKMGVISTASITAAENIDLLITDNKINKALYKKFQDAGLPVKIAE	not soluble
MGSDKIHHHHHHMFRIQLRTMSSKTCKSDYPKEFVSFLNSSHSPYHTVHNIKKHLVSNGFKELSERDSWAGHVAQKGKYFVTRNGSSIIAFAVGGKWEPGNPIAITGAHTDSPALRIKPISKRVSEKYLQVGVETYGGAIWHSWFDKDLGVAGRVFVKDAKTGKSIARLVDLNRPLLKIPTLAIHLDRDVNQKFEFNRETQLLPIGGLQEDKTEAKTEKEINNGEFTSIKTIVQRHHAELLGLIAKELAIDTIEDIEDFELILYDHNASTLGGFNDEFVFSGRLDNLTSCFTSMHGLTLAADTEIDRESGIRLMACFDHEEIGSSSAQGADSNFLPNILERLSILKGDGSDQTKPLFHSAILETSAKSFFLSSDVAHAVHPNYANKYESQHKPLLGGGPVIKINANQRYMTNSPGLVLVKRLAEAAKVPLQLFVVANDSPCGSTIGPILASKTGIRTLDLGNPVLSMHSIRETGGSADLEFQIKLFKEFFERYTSIESEIVV	not soluble
MGSDKIHHHHHHMFRPQDDFTYLMPVHFGGGKFDPETLVTQKATALSLSFETERDLLENYIPEGFELLAPEVQVAFNKFTEINWLHGGQYNLINVAAPVRFHGKKDELDGAYTLVVWENKTAPILGGREQTGIPKIYADIEDLHIVRPHFATTVSYEGNTFLNMDFEATGSITGRDLDALKSQFLTMNTLGWRYIPKVGAPGAELSQFVLYPQGMEVETAEVGKGSLKWTELTPMQSPAQYYIVNSLASLPIKRVTQAVLVEGRAILRAMGARVIE	not soluble
MGSDKIHHHHHHMFSSEVIASFNELEMSIYNYICQHAEKVAYMRIRELADETHVSTATILRFCRKVDCDGFSEFKVKLKMHLEKEKKAPIKSSQHAIAEFFERAFRGDLEERISEAAALVADAENVIFIGIGSSGILAEYGARYFSALGKLSMYIKDFSYPIHSKLRQNSVTIALSVSGETHFTITQVNQLKQEGSKIISITNNKFSTIAKVADVNLSYYVSEEFFEKANITTQVPVVYILEAMARELYKLQG	not soluble
MGSDKIHHHHHHMFVCEVRFECFADTTISAAQHAINHLLEAWRANGQILGREFAVSFHDGEFKARLMLPAQDSLANRHNSPWAKAALKGLTDAKILPPREKLLGQDINANESATHTPEWQLLYTSYVHMCSPVRSGDNLLPIPLYKLPATFNGDHKQLIRWQTEWQACDELQMASATKAEFAALDELCNVGSDLFRRGWDLRGRIEYLTKIPTYYYLYRVGGSSLQDELARPCPRCGSTGWRLDEPLLDMFHFRCEPCRIVSNLSWDYQ	not soluble
MGSDKIHHHHHHMGDLSDIRVFLAVAQQRSFTAAARQLSMTPPTVTRSVSALEQSLGVQLLLRTTRQVSLTSAGAVYAARVEPLIRQFDQVRDDLREEQGDVAGLIRINAPLSLGQQLLPDIVSGFRAEHPQVSVSLSLTDRFIDIVSERFDLALRVSEAPRDRSTIWRKVCRVRRILVASPGYLAIFGTPETPDDLSRHGCIAYDEEAISETWELTNGGRTRKALAGKVLAANNGELIAKLVEDGQGLALLPHFIVGDALASARRAEAGPCRVGASGALADIVLSALRETADARCEILGLLRKICYPYAPAVKKRRTQVLFSRRKASFPAKGEHMLQEFDDALRHASFESDLNGLYAALLLSRSFGSSESRIRSLGRSLPDLSQQKSRFVWRRE	not soluble
MGSDKIHHHHHHMGGIGLRRLGCGEAIQIGGDTRAGPVVQIESADHVQSGGDGKGLDTPSIGPDPKRVAVIGHHHVEGAIGVPVQIGKGLSGVHGIGMIQGFEYQFAARPLARRRAQRSDAVENGRHDAGIVDTQPGPPRQLVQPGHHFGAVVPPTARTIPGPGVHLVAIGGDDQRPLVARAAKQNKSAHSQKSVSSGLSARYNTTCVHRFHPVGAKHRKGYGTRLIMTAFDDREKAFEAKYRLDQEQEFKARIRRDKLLGLWAAEQMGISGDAAKTYALSVVDVEFDATDRDAGHKIVRDFIASGITLDEAAIRHQMAVLLEIAREQIVTEMGRP	not soluble
MGSDKIHHHHHHMGISNIKQLYSKWKSLQPLKPEDLKRWNDKFKLEFNYNSNHLEGNTLTYGQTKLLLMFGETSGNASLKDYEEMKAHNVGLEMIKQEAQDKERPLTESFIRELNRTILVQDYWKNAKTPDGQDIRMQIKVGEYKSRPNSVLTATGEVFSYASPEETPAFMTSLVDWYNLEADKGILTPVELAALLHYRYIRIHPFEDGNGRIARLLVNFVLHRYGYPMIVIHSEDKSNYLNILHQCDVEAGLTPSDGANATLNDILPFVNYLSSCLIRSLTLAIKAAKGESIEEEGDFDKKIAMLQRRYSDKAIEKSSRSVEQARSAFFELAVYVEQKISGLQKLFDRTFITNTPTWNMARKINTPNPDEPIIQSHILYTKSKEYSFVEDIIRLSKKSQVDYFKLKYDAVTFHFNHCRYAGDNTFDFPFCIYIQYLSDGCEISCDITSDSVKLSYNPDVLAEEGKEYMDTACNELLKLLEEKMNDKSPEN	not soluble
MGSDKIHHHHHHMGKLCSFLEKHKRSFPIGLSGNTGMGYILTGGISPLSRSKGLAIDQIIEIKGFWGNGKEFHLLRPNTKNELTNEWKALCGAAIFLGIITQVKLKTQPLRPLLSWTANLSFSELSECINQAESWPNSLSLQWIYGDDIFAHAIGEIKNTDDESVMIKLLEKLPFSRNRIINKFNNMKSLPNLSFGNNNNYNNSNHSEVLGLLGPAWQEKNKQVLKILKELINKRPNKSCYIASQQLGGLTHLNDLDTSFIHRDAIWKPWINGAWEAHNQAKRKRTLEWMTECWNNLEFICPGVHLAQIHPHLEWHKKELSSAFEDWLPNLEELKAIHDPRNIMPPLK	not soluble
MGSDKIHHHHHHMGKPTGFMEYDRCEAASVEPKERIKNFNEFHVFLSKENQQKQAARCMDCGVPFCQSGMTIAGMTSGCPLHNLVPEWNDLVYTGNWEQAYNRLHKTNNFPEFTSRVCPALCEKACTCGHWGSPVSVRDNEHGIIETAYANGYAAPKPPKVRTGKKVAIIGSGPSGLAAADQLNQRGHDVTVYEREDRVGGLLMYGIPNMKLDKSIIDRKVNIMKEEGIHFVTGCDVGKDIKPAELYKKYDRVILCCGAKNPRDIKADGRDAKGIYFAVDYLTQNTKSLLNSNLTDGKFVSAKGKNVVIIGGGDTGNDCVGTAIRQGAKSVTQLEMMPCPPTERAANNPWPQWPKVLKTDYGQEEAIAVFGHDPRTYKTTVKEFHKDKNGNLKELTIVSLESKKDEKTGRFMMVPVEGSEKKLPAELVLIAAGFLGTESYVAKAFGVELNARTNVSTQEGHYATNVKNVYVAGDNHRGQSLVVWAIREGREAAREVDESLMGYSYLSVQ	not soluble
